Experimental data from patent publication US20240287172A1 (SCIRHOM, published 2024).
Numbering of substitutions follows the chain as printed.

T1: hiR2-FL-R543A-T7 (human, UniProt Q6PJF5 1-856)
T1 sequence: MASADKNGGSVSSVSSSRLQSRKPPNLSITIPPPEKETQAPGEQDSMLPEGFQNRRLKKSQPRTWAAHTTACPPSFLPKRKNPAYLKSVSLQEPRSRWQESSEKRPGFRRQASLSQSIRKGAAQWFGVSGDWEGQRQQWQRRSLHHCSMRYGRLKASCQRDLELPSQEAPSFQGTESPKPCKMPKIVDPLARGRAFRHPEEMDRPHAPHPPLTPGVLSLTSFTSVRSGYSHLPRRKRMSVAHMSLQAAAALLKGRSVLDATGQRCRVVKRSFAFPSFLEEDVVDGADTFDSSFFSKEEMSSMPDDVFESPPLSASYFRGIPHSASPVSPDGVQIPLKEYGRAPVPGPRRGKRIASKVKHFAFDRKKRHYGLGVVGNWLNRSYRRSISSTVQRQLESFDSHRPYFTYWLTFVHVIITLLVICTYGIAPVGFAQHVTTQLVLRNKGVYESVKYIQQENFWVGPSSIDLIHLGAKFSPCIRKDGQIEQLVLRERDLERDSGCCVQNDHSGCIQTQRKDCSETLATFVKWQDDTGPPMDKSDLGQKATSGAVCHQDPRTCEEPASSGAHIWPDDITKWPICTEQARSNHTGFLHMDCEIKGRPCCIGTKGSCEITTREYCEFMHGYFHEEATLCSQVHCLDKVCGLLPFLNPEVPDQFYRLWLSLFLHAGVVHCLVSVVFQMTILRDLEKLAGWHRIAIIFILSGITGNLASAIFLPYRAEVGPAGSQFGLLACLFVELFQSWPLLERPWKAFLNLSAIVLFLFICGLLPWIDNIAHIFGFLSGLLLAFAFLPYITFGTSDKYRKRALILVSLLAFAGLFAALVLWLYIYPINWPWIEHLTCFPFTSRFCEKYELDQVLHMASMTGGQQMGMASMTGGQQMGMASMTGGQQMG

B1: antibody 5 (antibody, V domains shown)
VH: QVTLKESGPGILQPSQTLSLTCSFSGFSLSTFGMGVGWIRQPSGKGLEWLAHIWWDDEKYYNSALKSRLTISKATSKNQAFLKIANVDTADTATYYCARISNYGSNYWYFNVWGTGTTVTVSS
VL: QVVLTQSPALMSASPGEKVTMTCSAGSSVSCMYWYQQKPGSSPRVLIYDTSNLASGVPARFTGSGSGTSYSLTISRMEAEDAASYYCQQWNSYPLTFGAGTKLELK
notes: mouse IgG, kappa light chain; also called clone #5; purified antibody 5
B2: antibody 44 (antibody, V domains shown)
VH: B1 VH with G44E, E58D, S63P, A74D, A80I, A85T, D91E, A98S, S101G, N111D
VL: QIVLTQSPAVMSASPGEKVTMTCTASSSVYYMYWYQQTPGSSPRLLIYDTSNLASGVPVRFSGSGSGTSYSLTISRMEAEDAATYYCQQWNTYPLTFGAGTKLELK
notes: mouse IgG, kappa light chain; also called clone #44; purified antibody 44
B3: antibody 43 (antibody, V domains shown)
VH: B1 VH with T3A, P42S, H52N, E58D, S63P, A74D, T75A, S101G, N111D
VL: QIVLTQSPAIMSASPGERVTMTCSANSRISYMYWYQQKPGSSPRLLIYDTSNLASGVPVRFSGSGSGTSYSLTISRMEAEDAATYNCQQWSSYPLTFGAGTKLELK
notes: mouse IgG, kappa light chain; also called clone #43; purified antibody 43
B4: antibody 42 (antibody, V domains shown)
VH: B1 VH with F24L, M34R, S63P, A74D, A80V, K83R, S101Q, N111D
VL: B3 VL with Q1L, R18K, S24G, N26T, Y33F, L45V, M77V, A82V, N86Y, S91N
notes: mouse IgG, kappa light chain; also called clone #42; purified antibody 42
B5: antibody 22 (antibody, V domains shown)
VH: B1 VH with A80V
VL: B1 VL with C31Y, S84T
notes: mouse IgG, kappa light chain; also called clone #22; purified antibody 22
B6: antibody 3 (antibody, V domains shown)
VH: QVTLKESGPGILQPSQTLSLTCSFSGFSLTTFAMGIGWVRQPSGKGLEWLAHIWWDGEKYNNPVLKSRLTISKDTSKNQVFLRIANVDTPDTATYYCARISSIYYIIDNWGQGTSVTVSS
VL: DIVLTQSPATLSVTPGHSVSLSCRASQSISNNLHWYQKKSHESPRLLIKYVSQSISGIPSRFSGSGSGTDFTLSINSVETEDFGMYFCQQSYNWPLTFGAGTKLELK
notes: mouse IgG, kappa light chain; also called clone #3; purified antibody 3
B7: antibody 34 (antibody, V domains shown)
VH: QVTLKESGPGILQPSQTLSLTCSFSGFSLSTFSLGVGWIRQSSGKGLEWLAHIWWDDEKYYNPALKSRLTISKDTSKNQVFLKIANVDAADTATYYCARAYYSKSYYALDYWGQGTSVTVSS
VL: DIQMTQSPSSLSASLGERVSLTCRASQEISGYLSWLQQKPDGTIKRLIYAASTLDSGVPKRFSGSRSGSDYSLAISSLESEDFADYYCLQYANFPFTFGSGTKLEIK
notes: mouse IgG, kappa light chain; also called clone #34; purified antibody 34

Biological target: T1, hiR2-FL-R543A-T7
Assay: FACS on MEF-DKO cells expressing the variant, 3 µg/ml antibody
Outline: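 Flow cytometry read-out of binding to variant-expressing cells after two-step staining on ice: 1 h with antibody at 3 μg/ml, then 1 h with PE-labelled goat anti-mouse IgG F(ab′)2 diluted 1:100. Controls received FACS buffer without primary antibody.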

B1 and B2 cannot be ordered by “loss of binding vs wild type” value: at least 60% for the first, at least 95% for the second.

B3 and B4 cannot be ordered by “loss of binding vs wild type” value: at least 95% for the first, at least 60% for the second.

B5 and B6 cannot be ordered by “loss of binding vs wild type” value: at least 60% for the first, at least 30% for the second.

B7 was tested, and the “loss of binding vs wild type” value was at least 95%.
